Reference: the nanobody polyreactivity screen of Harvey et al. (2022)

Assay: yeast display, Sf9 membrane polyspecificity reagent, FACS + sequencing; frameworks hold sequencing errors
Summary of the method: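 Galactose-induced (36–48 hours) yeast carrying a synthetic nanobody display library were exposed to 10% biotinylated, detergent-solubilized Sf9 membrane reagent at 4 °C for 1 hour. FACS followed streptavidin microbead enrichment, using low and high (top ~1%) gates for expression (anti-HA) and reagent binding (streptavidin). Colony PCR, MiSeq 2 × 250 sequencing and CDR-length filtering followed. Labels for polyreactivity reflect the gate of origin.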
In the case of “QVQLVESGGGLVQAGGSLRLSCAASGSILKYYAMGWYRQAPGKERELVAAISRSGGSTYYADSVKGRFTISRDNAKITVYLQMTSLKPEDTAVYYCAAYYNLPYHGSDYWGQGTQVTVSS”, the “polyreactivity (PSR sort gate)” value is reported as “high polyreactivity”.
With “QVQLVESVRGLVQAGGTLRLSCAPSGGIFWVYAMGWYRQAPGKERELVAAISNSDTSTSYADSVKGRFTISRVNAKNTVYLQMNSLKPEDTAVYSCNADSPSLSGDYWGQGTQVTVSS” the “polyreactivity (PSR sort gate)” value was “low polyreactivity”.
In the case of “QVQLVESGGGLVQAGGSLRLSCAASGSTFVRNAMGWYRQEPGKERELVANISSGGGTKYADSVKGRFTISRDNAQNTVYLQMNSLKPEDTAVYYCAKRTIYSGRFYYWGQGTQVTVSS”, the “polyreactivity (PSR sort gate)” value is reported as “high polyreactivity”.
With “QVQLVESGGGLVQAGGSLRLSCAPSGSIFQSYAMGWYRQAPGKEREMVAAITRSGGRTYYADSVKGRFTISRDNAKNTVYLQMNSLKPEDTAVYYCAAFGWGYGYWGQGTQVTVSS” the “polyreactivity (PSR sort gate)” value was “high polyreactivity”.
In the case of “QVQLVESGGGLVQAGGSLRLSCAASGRIFGYYTMGWYRQAPGKERELVAAINGRGTSTYYADSVKGRFTISRDNAKNTVYLQMNSLKPEDTAVYYCAAGGWGPTRAYDYWGQGTQVTVSS”, the “polyreactivity (PSR sort gate)” value is reported as “high polyreactivity”.
In the case of “QVQLVESGGGLVQAGGSLRLSCAASGSTVSDNAMGWYRQAPGKERELVAAINWGGSNTYYADSVKGRFTISRDNAKNTVYLQMNSLKPEDTAVYYFNADIPRRTNRHYLYDYWGQGTQVTVSS”, the “polyreactivity (PSR sort gate)” value is reported as “low polyreactivity”.
For “QVHLVGSGGCLVQAGGSLRLSCAASGITFYYYVMGWYRQSPGKERELVAAINSGGSTNYADSVKGRFTISRDNAKNTVYLQMNSLKPEDTAVYYCNAYTVRSYRFDYWGQGTQVTVSS”, the “polyreactivity (PSR sort gate)” value was “high polyreactivity”.
In the case of “QVQLVESGGGLVQAGGSLRLSCAASGRTFSHYAMGWYRQAPGKERELVAAISGSGGTTYYADSVKGRFTISRDNAKNTVYLQMNSLKPEDTAVYYCNTRGRYLMDYWGQGTQVTVSS”, the “polyreactivity (PSR sort gate)” value is reported as “high polyreactivity”.
For “QVQLVESGGGLVQAGGSLRLSCAASGFTFVSYAMGWYRQAPGKERELVASITWTGGSTYYADSVKGRFTISRDNAKNTVYLQMNSLKPEDTAVYYDYWGQGTQVTVSS”, the “polyreactivity (PSR sort gate)” value was “low polyreactivity”.
With “QVQLVESWGGLVQAGGSLRLSCAASGSTFRSNAMGWYRQAPGKERELVAAITGSGGSTYYADSVKGRYTISRDNAKNTVYLQMNSLKPEDTAVYYCWGLGTQVTVSS” the “polyreactivity (PSR sort gate)” value was “low polyreactivity”.
In the case of “QVQLVESGGGLVQAGGSLRLSCASSGSIFGSNAMGWYRQAPVKERELVAAITWSDGSTYYADSVKGRFTISRDNAKNTVYLQMNSLKPEDTAVYYCAVVWRGGYRWPYEYWGQGTQVTVSS”, the “polyreactivity (PSR sort gate)” value is reported as “low polyreactivity”.
With “QVQLEESGGGLVQAGGSLRLSCAAYGIIFRTYDMGWYRQAPGKEREFVAAINSDCSTYYADSVKGRFTFSRDNAKNSVYLQMISVKTEDTAVYYCASDHYYAGAWYYFWGQGTQVTVSS” the “polyreactivity (PSR sort gate)” value was “high polyreactivity”.
With “QVQLVESGGGLVQAGGSLLLSCSASGRIFGVNAMGGYRQAPGKERELVAAISAGGGNTYYADSVKGRFTISRDNAKNTVYLQMNSLKPEDTAVYYCNVQRSLRMDYWGQGTQVTVSS” the “polyreactivity (PSR sort gate)” value was “high polyreactivity”.
For “QVQLVESGGGLVQAGGSLRLSCAASGSTFAYYAMGWYRPAPGTERELVAAISSGGSTYYADSVKGRFTISRDNAKNTVYLQMNSLKPEDTAVYYCAADAVKASVSYIVPYAAYDYWGQGTQVTVSS”, the “polyreactivity (PSR sort gate)” value was “low polyreactivity”.
In the case of “QVQLVESGGGLVQAGGSLRLSCAASGSTFWWYAMGWYRQAPGKERELVADITTGGSTNYADSVKGRFTISRDNAKNTVYLQMNSLKPEDTAVYYCNADGVTPYTWRLRYFKYHFDYWGQGTQVTVSS”, the “polyreactivity (PSR sort gate)” value is reported as “low polyreactivity”.
For “QVQLVESGGGLVQAGGSLRLSCAASGRTFVRYAMGWYRQAPGKERELVAAISRTGGTTYYADSVKGRFTISRDNAKNTVYLQMNSLKPVDTAVYYCNADPFYKYGYWGQGTQVTVSS”, the “polyreactivity (PSR sort gate)” value was “high polyreactivity”.
In the case of “QVQIVESGGGLVQAGGSLRLSCAASGRTFRTYAMGWSRPAPGKEREMVAAIRSNAGSTYYADSVKGRFTISRDNAKNTVYLQMHSLKPEDTAVYYCAKSYRSSRRYNYWGQGTQVTVSS”, the “polyreactivity (PSR sort gate)” value is reported as “high polyreactivity”.
For “EVQLVESGGGLVQAGGSLRLSCAASGRTFLVNAMGWSRPAPGKERELVAAISRSSGRTYYADSVKGRFTISRDNAKNTVYLQMNSLKPEDTAVYYCAARGYWGQGTQVTVSS”, the “polyreactivity (PSR sort gate)” value was “high polyreactivity”.
For “QVQLVESGGGLVQAGGSLRLSCAASGSIFSYNAMGWYRQAPGKERELVAAISRNGGRTYYADSVKGRFTISRDNAKNTVYLQMNSLKPEDTAVYYCNNAGYRAGTGSYDYWGQGTQVTVSS”, the “polyreactivity (PSR sort gate)” value was “high polyreactivity”.
With “QVQLVESGGGLVQAGGSLRLSCAASGSIFGRYVMGWYRQAPGKERELVAAITSVGITNYADSVKGRFTISRDNAKNTVYLQMNSLKPEDTAVYYCAKRYYRYGARSWYYPYDYWGQGTQVTVSS” the “polyreactivity (PSR sort gate)” value was “high polyreactivity”.
In the case of “QVQLVESGAGLVQAGGSLRLSCAASGSIYVYAMGWSRQAPGKERELVAAISWSDGSTYYADSVKGRFTISRDNAKNTVYLQMNSLKPEDTAVYYCNAYGIQVDTYWQDRVEYDYWGQGTQVTVSS”, the “polyreactivity (PSR sort gate)” value is reported as “high polyreactivity”.
In the case of “QLQLVESGGGLVQAGGSLRLSCAASGRIFHSYTMGCYTQAPGKHRELVSAITWSCGSTYYADSVKGRLTISRDHAKNTVYFQMNSLKAEDTSVFYCNAKRRVFRLSVTSAFDYWGQGTQVTVSS”, the “polyreactivity (PSR sort gate)” value is reported as “high polyreactivity”.
In the case of “QVQLVESGGGLVQAGGSLRLSSAASGITFYFYVMGWYRQAPGKERELVADISTSDDSTYYADSVKGRFTISRDNAKNTVYLQMNSLKPEDTAVYYCATATRTYSAWYEYDYWGQGTQVTVSS”, the “polyreactivity (PSR sort gate)” value is reported as “low polyreactivity”.
With “QVQLVESGGGLVQAGGSLRLTCAASGSTFGVYAMGWYRQAPRKDRELFAAISSSTGSTYYADSVKGRFTISRHKAKNTVYLQRNSLKPEDTAVYYRAAAGYGKVRGDYWGQGTQVTVSS” the “polyreactivity (PSR sort gate)” value was “low polyreactivity”.
With “QVQLVESGGGLVQAGGSLRLSCAASGFIFWLYAMGWYRQAPGKERELVAAISRSGGRTYYADSVKGRFTISRDNAKNTVYLQMNSLKPEDTAVYYCAKDDNYKSYPYDYWGQGTQVTVSS” the “polyreactivity (PSR sort gate)” value was “high polyreactivity”.
In the case of “QVHLQESGGGLVQAGGSLRLSCAASRTIFRISDMGSYRQAPGKEREFVAAITYGANTYYADSGKGRFTISRDNAKNSVYLQMNSLKADDTAVYYCAVPPVKETILDYWGQGTQVNVSS”, the “polyreactivity (PSR sort gate)” value is reported as “low polyreactivity”.
For “QVQLVESVGGLVQAGGSLRLSCAASGYIFGHYTMRWYRQAPGKERELVAGISSGGITYYADSVKGRFTISRDNAKNTVYLQMNSLKPEDTAVYYCAVGTRVKYDYWGQGTQVTVSS”, the “polyreactivity (PSR sort gate)” value was “high polyreactivity”.
In the case of “QVQLVESGGGLVQAGGSLRLSCAASGSIFSVYAMGWYRQAPGKERELVASITRSGGRTYYADSVKGRFTISRDNPKNTVYLQMNSLKPEDTAVYYCAADRLGSISGYDYWGQGTQVTVSS”, the “polyreactivity (PSR sort gate)” value is reported as “high polyreactivity”.
With “QVQLVESGGGLVQAGVSLLLSCAATGIIFSYYAMGWYRQAPGKERELVAAISWNSGSTYYADSVKGRFTISRDNAKNTVYLQMNSLKPEDTAVYYCAAESYYSYSYYRPYEYYYWGQGNQVTVSS” the “polyreactivity (PSR sort gate)” value was “high polyreactivity”.
In the case of “QVQLVESGGGLVQAGGSLRLSCAASVSTFQYNARGWYRQAPGKEMELVAAITSRGGSTYYADSVKGRFTISRDNAKNTVYLQMNSLKPEDTALYYCAALLSKSGRFDRAKVTAYGYWGQGTQVTVSS”, the “polyreactivity (PSR sort gate)” value is reported as “low polyreactivity”.
For “QVQLVESGGLLVQGGGILRLSCAASGRILQGYAMGWSRQAPGKERELVDAISSGGRTYYADSVKGRFTISRDNAKNNYYLQMNSLNPDDTAVYYCAAGECWRIHAYSDDFWVQGTQVTVSS”, the “polyreactivity (PSR sort gate)” value was “high polyreactivity”.
With “QVQLVESGGGLVQAGGSLRLSCAASGRTFWTNAMGWYRQAPGKEREFVAAISWRGASTFYADSVKGRFTISRDNAKNTVYLQMNSLNPEDTAVYYCAAQSRTRSFYGKYDSWGQATQVTVSS” the “polyreactivity (PSR sort gate)” value was “low polyreactivity”.
For “QVQLVESGGGLVQAGGSLRLSCAASGSTFTLYAMGWYRKAPGKERELVAAISRSGGRTYYADSVKGRFTISRDNAKNTVYLQMNSLKPEDTAVYYCNAPYKQDYDYWGQGTQVTVSS”, the “polyreactivity (PSR sort gate)” value was “high polyreactivity”.
For “QVQLVESGGGLVQAGGSLRLSCAASGRIFAWYVMGWYRQAPRKEREFVAAIRWRSGSTHYADSVKGRFTISRDNAKNTVYLQMNSLKPEDTAVYYCAVDSRTYNGDYWGQGTQVTVSS”, the “polyreactivity (PSR sort gate)” value was “high polyreactivity”.
With “QVQLVESGGGLVQAGGSLRLSCAASGSIFLVYSMGWYRQAPGKERELVAAISRSGRTYADSVKGRFTISRDNAKNTVYLQMNSLKPEDTAVYYCNKLAVRPGYGSTYDYWGQGTQVTVSS” the “polyreactivity (PSR sort gate)” value was “high polyreactivity”.
With “QVQLQESAGGLVQAGGSLSLSCAASGSISRYYDMGWYRQAPGKEREFVAGISGGASTYYADSVKGRFTISRDNAKNTVYLQMNSLKPEDTAVYYCAADTGVYQYHSYWGQGTQVTVSS” the “polyreactivity (PSR sort gate)” value was “low polyreactivity”.
For “QVQLVESGGGLVQAGGSLRLSCAASGRIFPKNAMGWYRQAPGKERELVASISSAGSTNYADSVKGRFTISRDNAKNTVYLQMNSLKPEDTAVYYCAAYHQSFGGVKGYYWGQGTQVTVSS”, the “polyreactivity (PSR sort gate)” value was “high polyreactivity”.
In the case of “QEQLQESGGGLVQAGGSLRLSCAASGTISYAGPMGWYRQAPGKEREFVAGIGVGSNTNYADSVKGRYTIIRDNAKNTVYLQMNSLKPEDTAVYYCAVGGYAPLGRPYWGQGTQVTVSS”, the “polyreactivity (PSR sort gate)” value is reported as “low polyreactivity”.
In the case of “QVQLVESGGGLVQAGGSLRLRCADSGFTLDVYAMGWYRQAPGKERELVAATSRSAGSTYYADSVKGRFTSSRDNAKNTVYLQMNSLKPEETDVYYCGARYPPRFGVVRGYSYYHTSTYSWGQGTQVTVSS”, the “polyreactivity (PSR sort gate)” value is reported as “high polyreactivity”.
In the case of “QVQLVESGGGLVQAGGSLRLSCAASGSILSYYAMGWYRLAPGKEREFVAAISSGGGTYYADSVKGRFTISRDNAKNTVYLQMNSLKPEDTAVYYCNAVHASSIQFEYWGQGTKVTVSS”, the “polyreactivity (PSR sort gate)” value is reported as “low polyreactivity”.
In the case of “QVQLVESGGGLVQAGGRLRLSCASSGIIFRYNAMGWYRQAPGKERELVAAISSSGTTNYADSVKGRFTISRDNAKNTVYLQMNSLKPEDTAVYYCAARRSYARRFKNSMEYWGQGTQVTVSS”, the “polyreactivity (PSR sort gate)” value is reported as “high polyreactivity”.
In the case of “QVQLVESGGGLVQAGGSLRLSCAASGRIFQYNPMGWYIQAPGKERELVADITWIGGSTYADSVKGRFTISRDTAKNTVYLQMNSLKPEDTAVYYCNARYIYRFDYWGQGSQVTVSS”, the “polyreactivity (PSR sort gate)” value is reported as “low polyreactivity”.
In the case of “QVQLVESGGGLVQAGGSLRLSCAASGLTFFYYAMGWYRQAPGKERELVAGISRSGGSTYYADSVKGRFTISRDNAKNTVYLQMISLKPEDTAVYYCAKRTLVASYIYREGEYWGQGTQVTVSS”, the “polyreactivity (PSR sort gate)” value is reported as “high polyreactivity”.
